Experimental data from article doi:10.1101/2025.10.17.683039.

Legend:
[1] = target: Enoyl-CoA carboxylase/reductase (ECR) from Burkholderia ambifaria (Burkholderia ambifaria); assay: SEC; S200 column; each protein alone (1 mL) and a mixture of equal volumes (500 uL each) of the two proteins; peaks compared
[2] = target: Enoyl-CoA carboxylase/reductase (ECR) from Mesorhizobium metallidurans (Mesorhizobium metallidurans); assay: crystal structure; apo ECR, space group C 1 2 1, 100 K, 1.40 Å, molecular replacement with PDB 6NA3
[3] = target: Enoyl-CoA carboxylase/reductase (ECR) from Mesorhizobium metallidurans (Mesorhizobium metallidurans); assay: SEC; S200 column; each protein alone (1 mL) and a mixture of equal volumes (500 uL each) of the two proteins; peaks compared

Substance: Enoyl-CoA carboxylase/reductase (ECR) from Burkholderia ambifaria (enzyme)
- stoichiometry N [1]: 4

Substance: Enoyl-CoA carboxylase/reductase (ECR) from Mesorhizobium metallidurans (enzyme)
- stoichiometry N [2]: 2
- stoichiometry N [3]: 2
